Reference: article PMC2173747 (The Journal of Cell Biology, 2003)

Target: purified human gelsolin (human, UniProt P06396 28-782)
Experiment: ELISA

Sequence of purified human gelsolin (P06396 28-782): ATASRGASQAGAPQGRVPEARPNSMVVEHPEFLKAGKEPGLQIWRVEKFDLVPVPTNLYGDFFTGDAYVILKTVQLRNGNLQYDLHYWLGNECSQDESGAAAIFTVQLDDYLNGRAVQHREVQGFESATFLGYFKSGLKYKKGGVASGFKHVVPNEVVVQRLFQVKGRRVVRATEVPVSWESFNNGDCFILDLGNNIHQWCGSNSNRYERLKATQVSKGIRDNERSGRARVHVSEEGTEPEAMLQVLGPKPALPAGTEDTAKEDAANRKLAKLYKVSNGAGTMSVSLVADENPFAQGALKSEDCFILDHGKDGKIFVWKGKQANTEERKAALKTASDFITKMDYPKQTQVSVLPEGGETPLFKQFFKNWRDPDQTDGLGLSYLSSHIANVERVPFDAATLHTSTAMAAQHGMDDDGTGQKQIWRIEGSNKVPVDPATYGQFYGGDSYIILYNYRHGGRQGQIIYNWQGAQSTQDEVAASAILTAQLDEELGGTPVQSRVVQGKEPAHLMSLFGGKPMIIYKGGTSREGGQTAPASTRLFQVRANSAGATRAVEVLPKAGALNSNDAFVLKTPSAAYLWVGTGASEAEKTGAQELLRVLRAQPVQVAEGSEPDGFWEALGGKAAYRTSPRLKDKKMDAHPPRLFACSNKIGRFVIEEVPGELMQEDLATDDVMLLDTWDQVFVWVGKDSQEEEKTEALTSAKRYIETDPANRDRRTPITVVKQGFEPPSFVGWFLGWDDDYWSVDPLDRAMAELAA

B1: GST-PYK2Δ1–781 (domain or fragment)
chain: EEDFIQPSSREEAQQLWEAEKVKMRQILDKQQKQMVEDYQWLRQEEKSLDPMVYMNDKSPLTPEKEVGYLEFTGPPQKPPRLGAQSIQPTANLDRTDDLVYLNVMELVRAVLELKNELCQLPPEGYVVVVKNVGLTLRKLIGSVDDLLPSLPSSSRTEIEGTQKLLNKDLAELINKMRLAQQNAVTSLSEECKRQMLTASHTLAVDAKNLLDAVDQAKVLANLAHPPAE
EC50: 0.03 ± 0.004 µM
